Laboratory results as given in patent US20220372159A1.

Target: CD84 on CD4+ T cells of wild-type mice (mouse) (UniProt Q18PI6)
Assay: cell-based or functional assay

UniProt Q18PI6, sequence (Q18PI6 22-329): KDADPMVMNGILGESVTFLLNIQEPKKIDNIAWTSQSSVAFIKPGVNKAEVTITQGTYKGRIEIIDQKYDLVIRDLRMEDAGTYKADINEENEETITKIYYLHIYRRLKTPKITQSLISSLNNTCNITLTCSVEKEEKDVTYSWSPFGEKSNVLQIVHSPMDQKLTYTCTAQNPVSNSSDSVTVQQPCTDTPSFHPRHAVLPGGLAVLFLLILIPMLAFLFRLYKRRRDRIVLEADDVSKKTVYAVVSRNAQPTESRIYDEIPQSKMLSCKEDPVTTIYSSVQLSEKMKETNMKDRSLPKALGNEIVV

distance and speed of migrating T cells (migration assay with platelet releasate): 25%
Substance: platelet-derived soluble CD84 (sCD84) in the releasate of GPVI-stimulated WT mouse platelets (from UniProt Q18PI6 22-221) (receptor)
